The labels stand for the following.
B1: 26S proteasome non-ATPase regulatory subunit 9 (Homo sapiens), O00233 (parent)
chain: MSDEEARQSGGSSQAGVVTVSDVQELMRRKEEIEAQIKANYDVLESQKGIGMNEPLVDCEGYPRSDVDLYQVRTARHNIICLQNDHKAVMKQVEEALHQLHARDKEKQARDMAEAHKEAMSRKLGQSESQGPPRAFAKVNSISPGSPASIAGLQVDDEIVEFGSVNTQNFQSLHNIGSVVQHSEGKPLNVTVIRRGEKHQLRLVPTRWAGKGLLGCNIIPLQR

The variants in test [1] derive from B1. To be noted: with HNRNPA1, P09651-2.
Variants of B1 are the subject of test [2]. As to conditions: with csh1_human CSH1, P0DML2.
In the test “rs14_human RPS14, P62263” the parent is B1. As to conditions: with rs14_human RPS14, P62263.
The variants in the test “IL6R, P08887-2” derive from B1. To be noted: with IL6R.
In test [3] the parent is B1. To be noted: with csh1_human CSH1, P0DML2. The source holds these as a separate data set.
Variants of B1 are the subject of test [4]. As to conditions: with HNRNPA1, P09651-2. The source holds these as a separate data set.
In test [5] the parent is B1. As to conditions: with HNRNPA1, P09651-2. This is another data set of the same source.

The text below walks through data of IntAct's records for PubMed 25009770.

IL6R, P08887-2, sequence (P08887 other isoform, or with tags, fused parts or gaps): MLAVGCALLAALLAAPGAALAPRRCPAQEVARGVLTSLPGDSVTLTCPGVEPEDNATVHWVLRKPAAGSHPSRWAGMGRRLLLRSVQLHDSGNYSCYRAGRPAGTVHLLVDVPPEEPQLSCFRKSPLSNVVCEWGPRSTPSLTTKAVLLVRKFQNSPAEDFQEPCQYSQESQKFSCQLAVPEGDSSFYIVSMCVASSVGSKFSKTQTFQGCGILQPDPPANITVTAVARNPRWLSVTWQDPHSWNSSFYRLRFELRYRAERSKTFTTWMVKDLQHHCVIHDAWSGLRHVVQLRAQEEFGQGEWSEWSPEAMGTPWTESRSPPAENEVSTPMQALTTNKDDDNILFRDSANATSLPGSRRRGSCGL

As for MSDEEARQSGGSSQAGVVTVSDVQELMRRKEEIEAQIKANYDVLESQKGIGMNEPLVDCEGYPRSDVDLYQVRTARHNIICLQNDHKAVMKQVEEALHQLHARDKEKQARDMAEAHKEAMSRKLGQSESQGPPRAFAKVNSISPGSPASIAGLQVDDEIVEFGSVNTQNFQSGHNIGSVVQHSEGKPLNVTVIRRGEKHQLRLVPTRWAGKGLLGCNIIPLQR [L173G], the “effect of a mutation on the interaction” value with HNRNPA1, P09651-2 [1] is reported as “with no effect”; with csh1_human CSH1, P0DML2 [2], “with no effect”; with rs14_human RPS14, P62263 it was “with no effect”; with IL6R, P08887-2, “with no effect”.
With MSDEEARQSGGSSQAGVVTVSDVQELMRRKEEIEAQIKANYDVLESQKGIGMNEPLVDCEGYPRSDVDLYQVRTARHNIICLQNDHKAVMKQVEEALHQLHARDKEKQARDMAEAHKEAMSRKLGQSESQGPPRAFAKVNSISPGSPASIAGGQVDDEIVEFGSVNTQNFQSLHNIGSVVQHSEGKPLNVTVIRRGEKHQLRLVPTRWAGKGLLGCNIIPLQR [L153G], the “effect of a mutation on the interaction” value with csh1_human CSH1, P0DML2 [3] was “decreasing interaction strength”; with HNRNPA1, P09651-2 [4], “decreasing interaction strength”; with HNRNPA1, P09651-2 [1], “disrupting interaction strength”; in the test with csh1_human CSH1, P0DML2 [2], “disrupting interaction strength”; with rs14_human RPS14, P62263 it was “disrupting interaction strength”; with IL6R, P08887-2 it was “disrupting interaction strength”.
With MSDEEARQSGGSSQAGVVTVSDVQELMRRKEEIEAQIKANYDVLESQKGIGMNEPLVDCEGYPRSDVDLYQVRTARHNIICLQNDHKAVMKQVEEALHQLHARDKEKQARDMAEAHKEAMSRKLGQSESQGPPRAFAKVNSISPGSPASIAGLQVDDEIVEGGSVNTQNFQSLHNIGSVVQHSEGKPLNVTVIRRGEKHQLRLVPTRWAGKGLLGCNIIPLQR [F162G], the “effect of a mutation on the interaction” value with csh1_human CSH1, P0DML2 [3] is “decreasing interaction strength”; with HNRNPA1, P09651-2 [4] it was “decreasing interaction strength”; with HNRNPA1, P09651-2 [1] it was “disrupting interaction strength”; with csh1_human CSH1, P0DML2 [2], “disrupting interaction strength”; in the test with rs14_human RPS14, P62263, “decreasing interaction strength”; with IL6R, P08887-2 it was “disrupting interaction strength”.
With MSDEEARQSGGSSQAGVVTVSDVQELMRRKEEIEAQIKANYDVLESQKGIGMNEPLVDCEGYPRSDVDLYQVRTARHNIICLQNDHKAVMKQVEEALHQLHARDKEKQARDMAEAHKEAMSRKGGGSGSQGPPRAFAKVNSISPGSPASIAGLQVDDEIVEFGSVNTQNFQSLHNIGSVVQHSEGKPLNVTVIRRGEKHQLRLVPTRWAGKGLLGCNIIPLQR [L124G;Q126G;E128G], the “effect of a mutation on the interaction” value with HNRNPA1, P09651-2 [1] is “disrupting interaction strength”; with csh1_human CSH1, P0DML2 [2], “disrupting interaction strength”; in the test with HNRNPA1, P09651-2 [5], “decreasing interaction strength”; with rs14_human RPS14, P62263, “disrupting interaction strength”; with IL6R, P08887-2, “disrupting interaction strength”.
With MSDEEARQSGGSSQAGVVTVSDVQELMRRKEEIEAQIKANYDVLESQKGIGMNEPLVDCEGYPRSDVDLYQVRTARHNIICLQNDHKAVMKQVEEALHQLHARDKEKQARDMAEAHKEAMSRKLGQSESQGPPRAFAKVNSISPGSPASIAGLQVDDEIVEFGSVNTQNFQSLHNIGSVVGHSEGKPLNVTVIRRGEKHQLRLVPTRWAGKGLLGCNIIPLQR [Q181G], the “effect of a mutation on the interaction” value with HNRNPA1, P09651-2 [1] is “disrupting interaction strength”; with csh1_human CSH1, P0DML2 [2] it was “decreasing interaction strength”; with HNRNPA1, P09651-2 [5], “decreasing interaction strength”; in the test with rs14_human RPS14, P62263 it was “disrupting interaction strength”; with IL6R, P08887-2, “disrupting interaction strength”.
